The values below come from patent publication US20210107972A1 (NEURIMMUNE, published 2021).

In test [1] the target is bovine serum albumin (BSA) (bovine, UniProt P02769 25-607). Kind of test: direct ELISA, BSA coated at 10 µg/ml.
Test [2] concerns the target T1, pepscan peptide 1: 1-KCNTATCATQ-10 (human, ends and bridges not checked; cysteine pairing not given here).
T1 construct: Spotted on a nitrocellulose membrane
T1 peptide: KCNTATCATQ
Kind of test: pepscan on nitrocellulose membrane, antibody 1 µg/ml.

Test [3] has as its target T2, pathological Aβ amyloid (Alzheimer's disease human brain) (human, UniProt P05067 672-713).
T2 construct: also called Aβ deposits
Nature of the test: immunohistochemistry, paraffin-embedded Alzheimer's disease brain sections.

Test [4] has as its target T3, pepscan peptide 2: 4-TATCATQRLA-13 (human).
T3 construct: Spotted on a nitrocellulose membrane
T3 peptide: TATCATQRLA
Kind of test: pepscan on nitrocellulose membrane.

The target of test [5] is T4, human islet amyloid polypeptide (human IAPP), IAPP solution containing IAPP fibrils (human, not fully specified; disulfide bridge between cysteine residues 2 and 7 and an amidated C-terminus (as the filing describes human IAPP)).
T4 construct: The human IAPP solution used for ELISA coating contained IAPP fibrils (electron microscopy); also called hIAPP; amylin
T4 peptide: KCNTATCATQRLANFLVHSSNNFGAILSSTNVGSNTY
Nature of the test: direct ELISA, human IAPP solution (fibrils) coated at 10 µg/ml. In general terms: An ELISA detects its analyte on a solid surface through an enzyme-linked reagent.

Test [6] addresses T5, pepscan peptide 7: 19-SSNNFGAILS-28 (human).
T5 construct: Spotted on a nitrocellulose membrane
T5 peptide: SSNNFGAILS
Kind of test: pepscan on nitrocellulose membrane, antibody 1 µg/ml.

The target of test [7] is T6, pepscan peptide 6: 16-LVHSSNNFGA-25 (human).
T6 construct: Spotted on a nitrocellulose membrane
T6 peptide: LVHSSNNFGA
Described as above.

For test [8], the target named is T4, human islet amyloid polypeptide (human …). Nature of the test: direct ELISA, human IAPP solution (fibrils) coated at 10 µg/ml, comparison with chimeric.

No end group written: not given here.

Sequence of bovine serum albumin (BSA) (P02769 25-607 limits assumed): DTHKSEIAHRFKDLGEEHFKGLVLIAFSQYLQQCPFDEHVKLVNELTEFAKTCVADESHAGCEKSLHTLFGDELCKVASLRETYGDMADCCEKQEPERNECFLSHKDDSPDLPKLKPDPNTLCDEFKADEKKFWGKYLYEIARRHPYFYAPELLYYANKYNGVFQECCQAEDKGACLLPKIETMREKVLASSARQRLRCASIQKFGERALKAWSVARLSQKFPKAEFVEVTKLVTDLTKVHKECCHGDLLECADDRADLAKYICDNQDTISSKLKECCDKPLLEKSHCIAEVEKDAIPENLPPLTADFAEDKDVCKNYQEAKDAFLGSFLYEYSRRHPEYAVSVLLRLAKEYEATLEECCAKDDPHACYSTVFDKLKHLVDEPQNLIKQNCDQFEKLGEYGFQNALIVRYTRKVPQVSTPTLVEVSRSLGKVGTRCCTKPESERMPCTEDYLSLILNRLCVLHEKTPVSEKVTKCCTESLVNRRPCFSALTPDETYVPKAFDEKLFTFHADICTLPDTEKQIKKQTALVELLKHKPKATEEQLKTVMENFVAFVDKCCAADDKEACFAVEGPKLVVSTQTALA

B1: NI-203.8E3 (antibody, V domains shown)
VH: QVQLVQSGAEVKKPGSSVKVSCKASGGTFSSHTISWVRQAPGQGLEWMGGIIPIFGTANYAQKFQDRVTVTADKSTNTAYMELSSLRPEDTAVYYCAKGELEPRILYYYGMDVWGRGTTVTVSS
VL: DVVMTQSPLSLPVTLGQPASISCRSSQSLVYSDGNTYLNWFHQRPGQSPRRLIYKVSNRDSGVPDRFSGSGSGTDFTLKISRVEAEDVGVYYCMQGSNWPGTFGQGTKVEIK
notes: Recombinant human antibody, kappa light chain, detected with anti-human IgG gamma secondary
On to B1, for which the binding result in test [1] is listed as “no binding”.

B2: NI-203.26C11 (antibody, V domains shown)
VH: QVQLQESGPGLVKPSQTLSLTCTVSGGSISSGNYYWTWIRQPAGKGLEWIGHIYSSGTTNYNPSLESRVTISVDTSKNQFSLSLNSVTAADTAVYYCARPLATVPDAFNIWGQGTMVTVSS
VL: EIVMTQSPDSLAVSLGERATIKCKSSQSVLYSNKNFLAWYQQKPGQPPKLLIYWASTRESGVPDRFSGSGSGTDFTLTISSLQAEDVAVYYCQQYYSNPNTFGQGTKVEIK
notes: as for B1
With B2, the binding result is given as “no binding” in test [1], “binds” in test [2], “no binding (tested: 50 nM)” in test [3] and “no binding (tested: 1 µg/ml)” in test [4].

B3: mouse chimeric NI-203.26C11 (antibody, V domains shown)
VH: QVQLQESGPGLVKPSQTLSLTCTVSGGSISSGNYYWTWIRQPAGKGLEWIGHIYSSGTTNYNPSLESRVTISVDTSKNQFSLSLNSVTAADTAVYYCARPLATVPDAFNIWGQGTMVTVSS
VL: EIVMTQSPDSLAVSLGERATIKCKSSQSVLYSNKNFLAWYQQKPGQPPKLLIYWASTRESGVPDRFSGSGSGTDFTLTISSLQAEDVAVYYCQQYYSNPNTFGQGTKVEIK
notes: Mouse chimeric version of the human antibody (said to comprise the CDR domains of the human antibody)
Regarding B3, the binding result in test [1] is “no binding”.

B4: NI-203.19H8 (antibody, V domains shown)
VH: EVQLVESGGGVVQPGTSLRLSCAASGFTFSSYGMHWVRQAPGKGLEWVAIIWYDGSKEYYADSLKGRVTISRDNSENTLYLQLHTLRVEDTAVYFCARTIASATVDHGMDVWGQGTLVTVSS
VL: DVVMTQSPSSVSASVGDRVTITCRASHDISTWLAWYQQRPGKAPNLLIFGASRLQSGVSPRFSGSGSGTDFTLTISSLQPEDFATYYCQQTNNFPPTFGQGTRLEIK
notes: as for B1
As for B4, the values for the EC50 in test [5] and in test [8] were 22 nM and 22.9 nM, respectively. For the same molecule, the binding result is given as “no binding” in test [1], “binds” in test [6], “binds” in test [7] and “no binding (tested: 50 nM)” in test [3].

B5: mouse chimeric NI-203.19H8 (antibody, V domains shown)
VH: EVQLVESGGGVVQPGTSLRLSCAASGFTFSSYGMHWVRQAPGKGLEWVAIIWYDGSKEYYADSLKGRVTISRDNSENTLYLQLHTLRVEDTAVYFCARTIASATVDHGMDVWGQGTLVTVSS
VL: DVVMTQSPSSVSASVGDRVTITCRASHDISTWLAWYQQRPGKAPNLLIFGASRLQSGVSPRFSGSGSGTDFTLTISSLQPEDFATYYCQQTNNFPPTFGQGTRLEIK
notes: as for B3
In test [5], B5 came in with an EC50 of 23.9 nM. The binding result in test [1] is listed as “no binding”.

B6: NI-203.9A2 (antibody, V domains shown)
VH: EVQLVESGGGLVQPGGSLRLSCAASGFTFSTFAMSWVRQAPGKGLEWVSTISGSGDNTYYADSLKGRFTISRDNSKNTLYLQVNSLRPEDTAVYYCAKSPSSLLATYFDYWGQGTLVTVSS
VL: EIVLTQSPSTLSASVGDRVTITCRASESINSWLAWYQQKPGKGPKLLIYKASSLQSGVPSRFSGSGSGTEFTLTISSLQPDDFATYYCQQHNSYWTFGQGTKVEIK
notes: as for B1
As for B6, the binding result is on record as “no binding” in test [1] and “no binding (tested: 50 nM)” in test [3].

B7: mouse chimeric NI-203.9A2 (antibody, V domains shown)
VH: EVQLVESGGGLVQPGGSLRLSCAASGFTFSTFAMSWVRQAPGKGLEWVSTISGSGDNTYYADSLKGRFTISRDNSKNTLYLQVNSLRPEDTAVYYCAKSPSSLLATYFDYWGQGTLVTVSS
VL: EIVLTQSPSTLSASVGDRVTITCRASESINSWLAWYQQKPGKGPKLLIYKASSLQSGVPSRFSGSGSGTEFTLTISSLQPDDFATYYCQQHNSYWTFGQGTKVEIK
notes: as for B3
On to B7, for which the binding result in test [1] is reported as “no binding”.

One may read the EC50 as the midpoint of the concentration-response curve.
